Measurements reported in paper PMC13223232, “Structural basis for TRF2-RAP1 recruitment by EBNA1 at the EBV origin of replication” (Scientific Reports, 2025).

Key:
[1] = biological target: TRF2 full length;Rap1 full length (Homo sapiens?;Homo sapiens?, UniProt Q15554;Q9NYB0 1-542;1-399, |); assay: EMSA; discrete bandshift, no EBNA1; EMSA: 10 mM HEPES pH 7.5, 300 mM KCl (100 mM for TRFH), 5 mM MgCl2, 1 mM ZnCl2, 5 mM BME, 0.05% NP-40, 5% glycerol; 5 nM probe; 20 nM EBNA1 in TRF2/Rap1 titrations; 1.4% agarose; temperature not stated; settings: protein: recombinant;recombinant; tags: His6-SUMO (N-terminal, cleaved by ULP1);His6-SUMO (N-terminal, cleaved by ULP1); chain copies: 2;2; label: 5'-IRD700 on both strands (EMSA); text calls it 60 bp)
[2] = biological target: T1, Rap1 full length (UniProt Q9NYB0 1-399); assay: EMSA; up to 480 nM, no EBNA1; EMSA: 10 mM HEPES pH 7.5, 300 mM KCl (100 mM for TRFH), 5 mM MgCl2, 1 mM ZnCl2, 5 mM BME, 0.05% NP-40, 5% glycerol; 5 nM probe; 20 nM EBNA1 in TRF2/Rap1 titrations; 1.4% agarose; temperature not stated; settings: protein: recombinant; tags: His6-SUMO (N-terminal, cleaved by ULP1); label: 5'-IRD700 on both strands (EMSA); text calls it 60 bp)
T1 sequence: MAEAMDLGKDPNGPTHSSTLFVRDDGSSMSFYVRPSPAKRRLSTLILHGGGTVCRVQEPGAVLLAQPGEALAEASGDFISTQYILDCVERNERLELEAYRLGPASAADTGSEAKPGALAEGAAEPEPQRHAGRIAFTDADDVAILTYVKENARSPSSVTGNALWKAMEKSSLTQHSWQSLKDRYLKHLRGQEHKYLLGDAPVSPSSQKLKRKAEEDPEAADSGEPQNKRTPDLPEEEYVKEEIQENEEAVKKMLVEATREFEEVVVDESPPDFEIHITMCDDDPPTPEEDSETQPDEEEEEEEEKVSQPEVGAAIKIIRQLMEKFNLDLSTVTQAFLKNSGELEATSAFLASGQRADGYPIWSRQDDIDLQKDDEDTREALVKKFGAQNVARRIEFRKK

[3] = biological target: EBNA1 DBD 401-607;TRF2 full length (Epstein-Barr virus;Homo sapiens?, UniProt P03211;Q15554 401-607;1-542, |); assay: EMSA; TRF2 titrated with EBNA1 401-607; binding increased roughly twofold; EMSA: 10 mM HEPES pH 7.5, 300 mM KCl (100 mM for TRFH), 5 mM MgCl2, 1 mM ZnCl2, 5 mM BME, 0.05% NP-40, 5% glycerol; 5 nM probe; 20 nM EBNA1 in TRF2/Rap1 titrations; 1.4% agarose; temperature not stated; settings: protein: recombinant;recombinant; tags: His6-SUMO (N-terminal, cleaved by ULP1);His6-SUMO (N-terminal, cleaved by ULP1); chain copies: 4;2; label: 5'-IRD700 on both strands (EMSA); text calls it 60 bp)
[4] = biological target: EBNA1 DBD 401-607;TRF2 full length;Rap1 full length (Epstein-Barr virus;Homo sapiens?;Homo …, UniProt P03211;Q15554;Q9NYB0 401-607;1-542;1-399, ||); assay: EMSA; TRF2/Rap1 titrated with EBNA1 401-607; binding increased roughly twofold; EMSA: 10 mM HEPES pH 7.5, 300 mM KCl (100 mM for TRFH), 5 mM MgCl2, 1 mM ZnCl2, 5 mM BME, 0.05% NP-40, 5% glycerol; 5 nM probe; 20 nM EBNA1 in TRF2/Rap1 titrations; 1.4% agarose; temperature not stated; settings: protein: recombinant;recombinant;recombinant; label: 5'-IRD700 on both strands (EMSA); text calls it 60 bp)
[5] = biological target: EBNA1 459-607;TRF2 TRFH domain (Epstein-Barr virus;Homo sapiens?, UniProt P03211;Q15554 459-607;85-287, |); assay: EMSA; clear TRFH supershift; EMSA: 10 mM HEPES pH 7.5, 300 mM KCl (100 mM for TRFH), 5 mM MgCl2, 1 mM ZnCl2, 5 mM BME, 0.05% NP-40, 5% glycerol; 5 nM probe; 20 nM EBNA1 in TRF2/Rap1 titrations; 1.4% agarose; temperature not stated; settings: protein: recombinant;recombinant; tags: ;GST (N-terminal); chain copies: 4;2; label: 5'-IRD700 on both strands (EMSA); text calls it 60 bp)
EBNA1 459-607;TRF2 TRFH domain, sequence (Q15554 85-287, one chain of several): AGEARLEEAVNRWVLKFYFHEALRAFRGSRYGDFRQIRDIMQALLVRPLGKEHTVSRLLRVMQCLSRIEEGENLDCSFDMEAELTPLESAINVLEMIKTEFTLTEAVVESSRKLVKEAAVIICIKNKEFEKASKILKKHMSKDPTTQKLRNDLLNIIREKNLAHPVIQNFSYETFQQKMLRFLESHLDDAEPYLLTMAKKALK

[6] = biological target: EBNA1 DBD 401-607;TRF2 TRFH domain (Epstein-Barr virus;Homo sapiens?, UniProt P03211;Q15554 401-607;85-287, |); assay: as above; settings: protein: recombinant;recombinant; tags: His6-SUMO (N-terminal, cleaved by ULP1);GST (N-terminal); chain copies: 4;2; label: 5'-IRD700 on both strands (EMSA); text calls it 60 bp)
EBNA1 DBD 401-607;TRF2 TRFH domain, sequence (Q15554 85-287, one chain of several): as above

B1: ½DS (EBV oriP dyad symmetry half) (dsDNA)
DNA 1: TAACCCTAATTCGATAGCATATGCTTCCCGTTGGGTAACATATGCTATTGAATTAGGGTTAG
DNA 2: CTAACCCTAATTCAATAGCATATGTTACCCAACGGGAAGCATATGCTATCGAATTAGGGTTA
Question: What does the source list for B1?
Answer: binding result [1]: binds; binding result [2]: no binding; binding result [3]: binds; binding result [4]: binds; binding result [5]: binds; binding result [6]: binds
